Numbering of substitutions follows the chain as printed. Numbers in names are those of the source.

Assay [1] has as its target T1, rHuman Notch-1/Fc Chimera, CF (R&D Systems Cat#3647-TK) (human, UniProt P46531 19-526).
T1 construct: Bought Fc chimera; Fc part of the bought chimera not given
In words: MSD Multispot ECL, antigen spotted on plate, Fab at 30 nM; blank spot 213.

The target in assay [2] is T2, rHuman Erythropoietin R/Fc Chimera, CF (R&D Systems Cat#963-ER) (human, UniProt P19235 25-250).
T2 construct: Bought Fc chimera; also called EPO R/Fc; Epo R; Fc part of the bought chimera not given
T2 sequence (looked up): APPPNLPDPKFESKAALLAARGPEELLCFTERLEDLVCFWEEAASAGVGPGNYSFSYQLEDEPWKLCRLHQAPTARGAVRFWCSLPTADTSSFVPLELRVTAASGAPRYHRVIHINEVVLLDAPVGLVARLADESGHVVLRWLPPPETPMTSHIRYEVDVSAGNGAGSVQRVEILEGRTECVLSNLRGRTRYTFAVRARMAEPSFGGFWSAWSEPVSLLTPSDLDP
The description is as above.

The target in assay [3] is T3, rHuman CD44/Fc Chimera, CF (R&D Systems Cat#3660-CD) (human, UniProt P16070 21-220).
T3 construct: Bought recombinant protein; Fc part of the bought chimera not given
The experiment in a line: ECL multispot (MSD), antigen spotted on plate, Fab at 500.00 (column head: Fab [µM]).

The target of assay [4] is T4, rHuman EGF R/Fc Chimera, CF (R&D Systems Cat#344-ER) (human, UniProt P00533 25-645).
T4 construct: Bought recombinant protein; Fc part of the bought chimera not given
Described as above.

Assay [5] deals with T5, rHuman Notch-1/Fc Chimera, CF (R&D Systems Cat#3647-TK) (human, UniProt P46531 19-526).
T5 construct: Bought recombinant chimera; Fc part of the bought chimera not given
The description is as above.

Assay [6] addresses T6, rHuman IGF-1 sR (insulin-like growth factor-1 soluble receptor), CF (R&D Systems Cat#391-GR) (human, UniProt P08069 31-932).
T6 construct: Bought recombinant soluble receptor
The assay is described as above.

Assay [7] concerns the target T7, rHuman ErbB2/Fc Chimera, CF (R&D Systems Cat#1129-ER) (human, UniProt P04626 23-652).
T7 construct: Bought recombinant protein; Fc part of the bought chimera not given
The assay is described as above.

The target in assay [8] is T8, rHuman P-Cadherin/Fc Chimera, CF (R&D Systems Cat#861-PC) (human, UniProt P22223 108-654).
T8 construct: Bought recombinant protein; Fc part of the bought chimera not given
The description is as above.

Assay [9] deals with T9, Recombinant Human DLL4 (R&D Systems Cat#1506-D4/CF) (human, UniProt Q9NR61 27-524).
T9 construct: Bought recombinant protein; also called delta-like protein 4; rHuman DLL4
Described as above.

Assay [10] deals with T10, rHuman HGF R/c-MET/Fc Chimera, CF (R&D Systems Cat#358-MT/CF) (human, UniProt P08581 25-932).
T10 construct: Bought recombinant protein; also called HGF R/Fc; Fc part of the bought chimera not given
The assay is described as above.

Assay [11] addresses T11, rHuman Erythropoietin R/Fc Chimera, CF (R&D Systems Cat#963-ER) (human, UniProt P19235 25-250).
T11 construct: Bought recombinant protein; also called EPO R; EPO R/Fc; Fc part of the bought chimera not given
T11 sequence (looked up): T2 sequence (looked up)
The description is as above.

Assay [12] has as its target T3, rHuman CD44/Fc Chimera, CF (R&D Systems …). In words: ECL multispot (MSD), antigen spotted on plate, Fab at 5.00 (column head: Fab [µM]).
Assay [13] addresses T4, rHuman EGF R/Fc Chimera, CF (R&D …). The description is as above.
The target of assay [14] is T5, rHuman Notch-1/Fc Chimera, CF (R&D …). Described as above.
For assay [15], the target named is T6, rHuman IGF-1 sR (insulin-like growth …). The description is as above.
Assay [16] has as its target T7, rHuman ErbB2/Fc Chimera, CF (R&D …). Described as above.
Assay [17] deals with T8, rHuman P-Cadherin/Fc Chimera, CF (R&D …). The assay is described as above.
In assay [18] the target is T9, Recombinant Human DLL4 (R&D Systems …). The assay is described as above.
For assay [19], the target named is T10, rHuman HGF R/c-MET/Fc Chimera, CF (R&D …). The assay is described as above.

T10 sequence (P08581 25-932, change not shown): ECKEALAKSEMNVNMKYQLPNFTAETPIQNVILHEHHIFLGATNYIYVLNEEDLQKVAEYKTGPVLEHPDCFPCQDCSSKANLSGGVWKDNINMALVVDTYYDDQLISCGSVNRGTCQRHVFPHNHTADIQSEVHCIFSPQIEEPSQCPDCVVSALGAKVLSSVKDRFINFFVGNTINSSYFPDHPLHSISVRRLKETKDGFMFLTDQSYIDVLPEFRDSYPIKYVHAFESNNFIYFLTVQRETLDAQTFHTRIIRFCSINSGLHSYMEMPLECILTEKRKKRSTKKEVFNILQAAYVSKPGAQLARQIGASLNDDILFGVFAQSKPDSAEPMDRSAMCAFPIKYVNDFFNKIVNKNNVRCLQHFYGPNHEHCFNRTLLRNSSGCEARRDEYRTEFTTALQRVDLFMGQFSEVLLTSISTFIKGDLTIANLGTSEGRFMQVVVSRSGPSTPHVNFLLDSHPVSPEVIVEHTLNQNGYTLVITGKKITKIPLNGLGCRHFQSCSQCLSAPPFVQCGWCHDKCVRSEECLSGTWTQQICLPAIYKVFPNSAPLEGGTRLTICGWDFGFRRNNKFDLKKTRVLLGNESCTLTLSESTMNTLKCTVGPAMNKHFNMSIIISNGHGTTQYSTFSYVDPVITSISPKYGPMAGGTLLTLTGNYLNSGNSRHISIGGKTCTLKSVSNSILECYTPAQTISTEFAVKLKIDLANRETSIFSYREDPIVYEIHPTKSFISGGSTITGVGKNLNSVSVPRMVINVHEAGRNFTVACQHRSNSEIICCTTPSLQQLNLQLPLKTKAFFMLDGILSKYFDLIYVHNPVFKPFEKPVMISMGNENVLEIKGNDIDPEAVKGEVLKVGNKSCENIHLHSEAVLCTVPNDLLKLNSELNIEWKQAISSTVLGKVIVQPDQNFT

B1: Fab VH6-1_IGHD3-3*01_IGHJ4*01 & V4-3_IGLJ4*01 (Fab, V domains shown)
VH: QVQLQQSGPGLVKPSQTLSLTCAISGDSVSSNSAAWNWIRQSPSRGLEWLGRTYYRSKWYNDYAVSVKSRITINPDTSKNQFSLQLNSVTPEDTAVYYCAREYYDFWSGYYTDYFDYWGQGTLVTVSS
VL: QPVLTQPTSLSASPGASARLTCTLRSGINLGSYRIFWYQQKPESPPRYLLSYYSDSSKHQGSGVPSRFSGSKDASSNAGILVISGLQSEDEADYYCMIWHSSASFVFGGGTQLIIL
notes: Tested as a purified germline Fab made in E. coli; The VH was cloned into plasmid A (CH1 constant region, His6 and Flag tags) and the lambda VL into plasmid E (lambda CL)
Take B1: the ECL signal in assay [1] came out at 425; in assay [2], 325.

B2: Fab VH1-46_IGHD6-6*01_IGHJ1*01 & L6_IGKJ1*01 (Fab, V domains shown)
VH: QVQLVQSGAEVKKPGASVKVSCKASGYTFTSYYMHWVRQAPGQGLEWMGIINPSGGSTSYAQKFQGRVTMTRDTSTSTVYMELSSLRSEDTAVYYCAREEYSSSSAEYFQHWGQGTLVTVSS
VL: not shown
notes: Tested as a Fab expressed in E. coli; The heavy chain came from Plasmid A (CH1 with His6 and Flag tags) and the kappa light chain from Plasmid C (kappa CL); also called Wt; wildtype
Consider B2, for which the “signal/noise ratio (ECL)” value in assay [3] was found to be 0.4; in [4] it was 0.7; in assay [5] it was 0.8; in assay [6] it was 0.4; in assay [7], 0.3; in [8], 0.2. For the same molecule, the “signal/noise ratio (ECL)” value worked out at 16.2 in [9]; 0.3 in [10]; 0.8 in assay [11]; 1.3 in assay [12]; 1 in assay [13]; 0.8 in assay [14]. The “signal/noise ratio (ECL)” value in assay [15] worked out at 1.1; in assay [16] it was 1; in [17], 0.9; in [18] it was 32.5; in assay [19], 0.9.

B3: Fab VH1-46_IGHD6-6*01_IGHJ1*01 S102A/S103P/S104F (APF) & L6_IGKJ1*01 (Fab, V domains shown)
VH: B2 VH with S102A, S103P, S104F
VL: not shown
notes: Tested as a Fab expressed in E. coli; the constant parts (CH1 with His6/Flag tags, kappa CL) come from Plasmids A and C; also called APF triple mutant; H:APF & L:wt
Consider B3, for which the “signal/noise ratio (ECL)” value turned out to be 2.4 in assay [3]; 5.5 in assay [4]; 4.2 in assay [5]; 1.5 in assay [6]; 1.7 in assay [7]; 3.4 in [8]. For the same molecule, the “signal/noise ratio (ECL)” value in assay [9] came to 181; in assay [10], 2.2; in assay [11] it was 10.4; in [12] it was 1.3; in assay [13], 1.1; in assay [14] it was 0.9. For the same molecule, the “signal/noise ratio (ECL)” value in [15] was 1.1; in assay [16], 1.1; in assay [17] it was 1; in [18] it was 482; in assay [19], 0.8.

The record behind these values is US20120316071A1 (published 2012).
